Measurements from PMC10042821 (2023).

B1: eukaryotic translation factor 5A-1 (eIF5A-1), residues 15-151 [human] / deoxyhypusine synthase, wild type, His-tagged [human] (parent complex)
chain 1: not shown
chain 2: MEGSLEREAPAGALAAVLKHSSTLPPESTQVRGYDFNRGVNYRALLEAFGTTGFQATNFGRAVQQVNAMIEKKLEPLSQDEDQHADLTQSRRPLTSCTIFLGYTSNLISSGIRETIRYLVQHNMVDVLVTTAGGVEEDLIKCLAPTYLGEFSLRGKELRENGINRIGNLLVPNENYCKFEDWLMPILDQMVMEQNTEGVKWTPSKMIARLGKEINNPESVYYWAQKNHIPVFSPALTDGSLGDMIFFHSYKNPGLVLDIVEDLRLINTQAIFAKCTGMIILGGGVVKHHIANANLMRNGADYAVYINTAQEFDGSDSGARPDEAVSWGKIRVDAQPVKVYADASLVFPLLVAETFAQKMDAFMHEKNED

Variants of: B1
Assay: MST; read off a plot

How did the EC50 turn out when chain 2 Y176A was run?
Its EC50 is ~0.7 µM.

Which EC50 does the source give for chain 2 L295A here?
Its EC50 is ~0.3 µM.

For chain 2 M244A, which EC50 is on record?
Its EC50 is ~12 µM.

Which EC50 does the source give for chain 2 Y250A here?
The EC50 was ~45 µM.

For chain 2 S240A, which EC50 is on record?
Its EC50 is ~2 µM.

With chain 2 Q83A as the variant, how does the EC50 read?
Its EC50 is ~7 µM.

With chain 2 F272A as the variant, how does the EC50 read?
Its EC50 is ~0.4 µM.

Which EC50 does the source give for chain 2 I271A here?
The EC50 was ~0.05 µM.

For chain 2 N173A, which EC50 is on record?
The EC50 was ~13 µM.

Variants of: B1
Assay: MST; read off a plot
Remark: another data set of the same source

For chain 2 W327A, which EC50 is on record?
The EC50 was ~0.6 µM.

Which EC50 does the source give for chain 2 D243A here?
The EC50 was ~0.5 µM.

Which EC50 does the source give for chain 2 K329A here?
The EC50 was ~0.13 µM.

For chain 2 E137A, which EC50 is on record?
Its EC50 is ~0.045 µM.

Which EC50 does the source give for chain 2 H288A here?
The EC50 was ~0.05 µM.

Variants of: B1
Assay: MST; highest eIF5A concentration of the titration, est. 6e-5 M; read off a plot

Which response does the source give for chain 2 F247A here?
The response was ~0.33 fraction bound.
